Assay: soluble fraction after stress (log2 fold change); higher = more stays soluble; pooled small domains, quantitative proteomics
Conditions: stress: 50 degC
Method in brief: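 The measure of aggregation propensity here is the base-two logarithm of the fold change in the soluble amount of each protein after stress. A higher value means more of that protein stays in solution. Stress was applied at 50°C to pooled libraries of small protein domains, read out by high-throughput quantitative proteomics.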
In the case of “HMWQPIKLDRGDWQNSLQVGDRVFVRGIPRPVEILSAVDEENNIEVLMGTMRAKIPVYQLDKPAENFIDTT”, the “soluble fraction (log2)” value is reported as -0.15.
With “HMNVGKRLKSLREKYKFSLEEVAKKIKSSAGAISRYENNERKINSESLIRLSNLYNVSPEYILYG” the “soluble fraction (log2)” value was 0.0449.
In the case of “HMLPSWPGVSEFEVARLLRRGRARGSLTLDEVIDVVRDAELTSELIAGIRSSLRAEGIDFEET”, the “soluble fraction (log2)” value is reported as -0.475.
With “HMDQPVIDVREFGARGDGKQDDAPAIQAAVRLAEQLGGGRVVVPATREFYLLGSTIRIRGHHVTLTGPGAR” the “soluble fraction (log2)” value was 0.0155.
In the case of “HMEDEFNQIASQKNVPSFLGKGKKEVINIAKKNKIKINLSGNGYVKRQIPAPGEVISHLDEVTIFLEPG”, the “soluble fraction (log2)” value is reported as 0.396.
For “HMTVDHDERRSMILEAFMRLAAREGLHAVSLRGVAAEAGISLRLVQYYFETKARLMQSGLTALET”, the “soluble fraction (log2)” value was -0.281.
In the case of “HMLQEHVLEIRHPSWNDAFRIIGHDGWRTQTGAHAAILSYDEEELNIKWDSWGYERFIRDEKGIFRLAA”, the “soluble fraction (log2)” value is reported as -0.055.
In the case of “HMARSKSRQSSVLESVPGLGPSRRRNLLRHFGGLQGVVKAGVEDLMAVRGISRTLAETVYDHLHPGS”, the “soluble fraction (log2)” value is reported as -0.289.
For “HMTPVTYELTVQSGAGQRIDKYLSEQLADLTRSYLQKLLKDGGVTVNGKTVKSNYKLSENDQIFLEVPDA”, the “soluble fraction (log2)” value was 0.0372.
For “HMEDISLYKILRAHSIDNLKLSQWIIDSLKTKFSTIGELQDAKIDDIRMYRIQDVRIEKIKNAVTEYMA”, the “soluble fraction (log2)” value was -0.926.
With “HMLIDSNNYFFYKVKPKEGFYSLQKKLGVNRSEIEKHNPSLINEVLKEGMILKIPKYLLNFDLN” the “soluble fraction (log2)” value was -0.297.
In the case of “HMSGYSTLFTRMSREDAQAVVSLLQDDGIEYRYNDDTGTVQVPSATVDQTRAKLVSAGYPRS”, the “soluble fraction (log2)” value is reported as -0.231.
With “HMNPSKEFNMSDLLKAKMVGDVSAAKRREKAGALLHIGYGNAKTFLKKLNHFSISREEWDKVIAAMEEF” the “soluble fraction (log2)” value was -0.743.
With “HMSNYFIEISKDSLARINDEIELDVLRETSDTIIISQEEKTNTISSFIKVLFERQIDILSIQNR” the “soluble fraction (log2)” value was 0.000151.
In the case of “HMDDTRLELTLLGKIHNDEEINKQSHINVNIKNGVILLTGESPRREITERILTLARTFEHTRQIVNQIAT”, the “soluble fraction (log2)” value is reported as 0.116.
For “HMADVLLKHGSSGDYVWDLQYRLKTLSLFDQEMTGYFGPHTRQAVVNFQRKYGLPADGVVGPATWRALRK”, the “soluble fraction (log2)” value was -2.27.
For “HMSFTDLILKSANAIDEMGGIWENGKQILGEKAIAIHEEIVDNGLNPDKDGFYKLANGQMIQYG”, the “soluble fraction (log2)” value was -0.000487.
With “HMNPNFIEVSHGRLRVNVPLSAYEGTTYHIKPEEAEKLKRTLASRYPWLTPNALKVFIEEAEQAMRERIQ” the “soluble fraction (log2)” value was -0.29.
With “HMKAQLQHIIGSNIKLARNTQGYTQEGLAERAEISVEHLKQVERGKKMLSVESLVNVANALQVSVDSLV” the “soluble fraction (log2)” value was 0.0587.
For “HMEEMADILKTRIDTLDLSTRTLNALTGANIRTVGGIARKKKEDLLELAGMGEKGIQEIKKVLGGFGITL”, the “soluble fraction (log2)” value was -0.0181.
For “HMVKSDLVGHRFILVEDVTPKLTPKYHYSGINWKLITTDNLVAGTRVEVIQVDVGKFHIKAIK”, the “soluble fraction (log2)” value was -1.65.
For “HMQTLQTTSLRVSENQLFILDQQALPQEKRWLAADNVALLVDHIHTLRVRGAPLIGLSASLLLALLAGRLT”, the “soluble fraction (log2)” value was -0.0766.
In the case of “HMPLTPATADAGRFVKQDRKYIRLLAKRYNFTHGDIKSEIDRVSAVLSSNGIDRVPLFLYKEYLEQYLAG”, the “soluble fraction (log2)” value is reported as -1.85.
With “HMLAIELDDKPGSLLRALEIFAKRNLNIEYMYAFTEKRGDKAVMIFKFSDIETAKKSLLEEGFN” the “soluble fraction (log2)” value was -1.64.
With “HMAPLATLEAGEDGSVKLPNLAGHSIREVAAALGGAKLSLIPIGSGTSWKQTPAPGAVLHSGDTVTVYF” the “soluble fraction (log2)” value was 0.142.
With “HMENIEVDFGVGDTVSVIGGAWKDTVGVVQAMNPNKQSLTINVELFGRETPVEISFTDVQKM” the “soluble fraction (log2)” value was -0.0126.
With “HMSVTPLLDATEKDKTKYRDLWLVAVVKNGVNYARKYKFGYVYAWLYRHDRDWLLQVNNQHKIPNIT” the “soluble fraction (log2)” value was 0.127.
For “HMFNDPTMEDALVNLKGITNEVLSYLSSSKIKKLEELAEMSVPELKDIVENISDDEASALIMEARKPWF”, the “soluble fraction (log2)” value was -0.113.
In the case of “HMKPMNNNDILRRLRYTFDLSDDKMMETFALGGYEANRSEISDWLKKDDHPEQKSLYDKSLSHFLNGFIV”, the “soluble fraction (log2)” value is reported as -0.202.
In the case of “HMAVSGRMMVYEYIRQQMREGSLLPGSVLDLPAISHKLGISNTPLRDSLIRLEAEGYLTIYPRSKVVIN”, the “soluble fraction (log2)” value is reported as -2.87.

Reference: the domain aggregation screens of Martell et al. (2025)
